Measured values reported in patent US20220033519A1 (NATIONAL RESEARCH COUNCIL OF CANADA, published 2022).

T1: soluble and secreted FUT8 (sFUT8) enzyme (aa 87-575; UniProtKB #Q9BYC5) with C-terminal polyhistidine tag (UniProt Q9BYC5 87-575)
T1 sequence: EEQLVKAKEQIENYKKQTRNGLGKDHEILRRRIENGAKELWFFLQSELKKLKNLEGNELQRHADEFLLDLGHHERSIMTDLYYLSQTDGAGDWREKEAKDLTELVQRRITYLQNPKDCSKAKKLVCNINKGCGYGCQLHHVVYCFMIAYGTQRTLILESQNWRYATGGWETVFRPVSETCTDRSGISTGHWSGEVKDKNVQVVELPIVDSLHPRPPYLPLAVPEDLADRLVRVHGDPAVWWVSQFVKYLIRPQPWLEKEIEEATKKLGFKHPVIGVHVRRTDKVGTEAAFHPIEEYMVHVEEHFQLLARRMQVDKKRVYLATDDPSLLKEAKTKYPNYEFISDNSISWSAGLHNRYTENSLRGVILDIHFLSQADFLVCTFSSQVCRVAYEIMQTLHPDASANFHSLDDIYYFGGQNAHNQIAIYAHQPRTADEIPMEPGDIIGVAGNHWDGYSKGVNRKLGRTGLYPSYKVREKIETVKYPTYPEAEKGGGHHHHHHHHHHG

B1: anti-FUT8 monoclonal antibody 5C9 (hybridoma) (antibody, V domains shown)
VH: QVQLKESGPGLVAPSQSLSITCTVSGFSLTGYGVNWVRQPPGKGLEWLGTIWGDGSTDYNSALKSRLSISKDNSKTQVFLKMHSLQTDDTAIYYCARGGYDDYFGYAMDYWGQGTSVTVSS
VL: DIVMTQSQKFMSTVVGDRVSVTCKASQNVGTNVAWYQQKPGQSPKALIYSASYRYSGVPDRLTGSGSGTDFTLTFSYVQSEDLAEYFCQQYYTYPYTFGGGTKLEIK
B2: anti-FUT8 monoclonal antibody 1H9 (hybridoma) (antibody, V domains shown)
VH: EVQLQQSGPELVKPGASVKMSCKASGYIFTDYVMHWVKQSNGKSLEWIGYINPYNDYSNYNQKFKGKATLTVDKSSNTAYMQLNSLTSEDSAVYFCARSGDVWLAYWGQGTLVTISA
VL: DIVLTQSPASLAISLGQRATISCRASKSVSTSGYSYMHWYQQKPGQPPRLLIYLASNLESGVPARFSGSGSGTDFTLNIHPVEEEDGATYYCQHSRELPWTFGGGT
B3: anti-FUT8 monoclonal antibody 1D2 (hybridoma) (antibody, V domains shown)
VH: QVQLKESGPGLVAPSQSLSITCTVSGFSLTGYGVNWVRQPPGKGLEWLGMIWGDGSTDYNSALKSRLSISKDNSKSQVFLKMNSLQTDDTASYYCARDFYDGYLYAMDYWGQGTSVTVSSAS
VL: DIVMTQSQKFMSTSLGDRVSVTCKASQNVGSYVAWYQQKPGQSPKALIYSASYRYSGVPDRFAGSGSGTDFTLTISNVQSEDLAEYFCQQYYTYPYTFGGGTWSTRLASWAFRSL

target: T1, soluble and secreted FUT8 (sFUT8) …; experiment: cell-based or functional assay

Going from B1 to B2, the “FUT8 enzymatic activity (% inhibition)” value falls from 87% to 60%.

For B3, the “FUT8 enzymatic activity (% inhibition)” value was 82%.
